The text below walks through data of US12692303.

Broadly, the EC50 is the concentration at which the effect is half-maximal. Higher therefore signals lower potency in that assay.

The target in the assay is IL-23-p40 (human) (UniProt P29460). In words: Binding ELISA: IL-23-p40 coated at 2 ug/ml, antibody dilution series 0 to 5 ug/ml, goat anti-human IgG secondary antibody, OD450 (reference 650 nm). The sheet prints no unit on the x axis; ng/ml follows from the range in paragraph 77 (highest point at 5000).
Sequence of IL-23-p40 (human) (P29460 23-328 limits assumed): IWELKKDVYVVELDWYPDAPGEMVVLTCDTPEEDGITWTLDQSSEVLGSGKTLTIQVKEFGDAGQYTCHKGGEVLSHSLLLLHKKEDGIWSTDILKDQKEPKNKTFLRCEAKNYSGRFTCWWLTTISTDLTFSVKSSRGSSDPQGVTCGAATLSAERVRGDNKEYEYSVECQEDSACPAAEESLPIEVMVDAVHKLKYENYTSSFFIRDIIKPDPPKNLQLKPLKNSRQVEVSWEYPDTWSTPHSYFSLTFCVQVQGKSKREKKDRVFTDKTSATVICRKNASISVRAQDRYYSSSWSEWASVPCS

For the substance IL-23 p40 specific antibody QX001S, the 50% effective concentration (EC50) amounted to 0.0179 µg/mL.
